Assay results as given in patent EP4644419A1 (Hangzhou Zhongmeihuadong Pharmaceutical Co., Ltd., dated 2025).
Residue numbers refer to the chain shown, from its start.

T1: human CD112R on GS-J2C/CD112R effector cells (human, UniProt Q6DKI7 1-326)
T1 sequence (looked up): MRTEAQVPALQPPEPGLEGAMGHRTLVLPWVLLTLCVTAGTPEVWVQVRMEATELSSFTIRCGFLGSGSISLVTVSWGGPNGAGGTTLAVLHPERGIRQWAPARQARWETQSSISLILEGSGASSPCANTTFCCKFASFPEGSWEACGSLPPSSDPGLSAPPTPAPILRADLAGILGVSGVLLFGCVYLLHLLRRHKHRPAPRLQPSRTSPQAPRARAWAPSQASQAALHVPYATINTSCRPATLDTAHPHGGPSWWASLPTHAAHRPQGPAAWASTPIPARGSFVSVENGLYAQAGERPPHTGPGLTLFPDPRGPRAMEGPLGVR

T2: human CD112R on antigen-specific CD8+ T cells (human, UniProt Q6DKI7 1-326)
T2 sequence (looked up): T1 sequence (looked up)

T3: human CD112R antigen protein huCD112R-His (Acro Biosysterm, PVG-H52H4) (human, UniProt Q6DKI7 41-171)
T3 construct: purchased; also called human antigen protein; not shown: His tag
T3 sequence (looked up): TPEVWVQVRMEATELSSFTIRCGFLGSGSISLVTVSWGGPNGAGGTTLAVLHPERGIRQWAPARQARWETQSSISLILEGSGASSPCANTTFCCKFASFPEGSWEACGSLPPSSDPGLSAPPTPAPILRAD

T4: monkey antigen protein (monkey CD112R, Uniprot ID: A0A2K5WVV8) (monkey, UniProt A0A2K5WVV8 41-171)
T4 sequence: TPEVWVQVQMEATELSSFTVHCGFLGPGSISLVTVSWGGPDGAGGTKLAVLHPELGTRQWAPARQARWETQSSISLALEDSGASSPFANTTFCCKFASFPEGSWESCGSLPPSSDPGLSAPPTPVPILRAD

B1: C3 (antibody, human IgG1, kappa, V domains shown)
VH: QVQLQQSGPELVKPGASVKISCRSSGYTFTDYYINWVKQRPGQGLEWIGWIFPGSDYTYYNEKFKGKATLTVDKSSTTAYMLLSSLTSEDSAVYFCARDGGLRGPFDYWGQGTTLTVSS
VL: DIQMTQSPSSLSASLGGKVTITCKASQDINKYIAWYQQKPGKGPRLLIHYTSTLQPGIPSRFSGSGSGRNSSFSISNLEPEDIATYYCLQYDNLHTFGGGTKLEIKR
B2: C14 (antibody, human IgG1, kappa, V domains shown)
VH: QVQLQQPGAELVRPGTSVKLSCKASGNTFTSYWMHWVKQRPGQGHEWIGVIDASDSNTKYNQKFKGKATLTVDTSSSTAYMQLSSLTSEDSAVYYCARYYSGSSYGLDYWGQGTTLTVSS
VL: DIQMTQTASSLSASLGDRVTISCRASQDISNYLNWYQQKPDGTVKLLIYYTSRLHSGVPSRFSGSGSGTDFSLTITHLEQEDIASYFCQQGNMFPPTFGGGTKLEIKR
B3: C41 (antibody, human IgG1, kappa, V domains shown)
VH: EVQLQQSGPELVKPGASVKISCKASGNTFTDYYINWVKQSHGKSLEWIGDIEPNNGGTNYNQKFKGKATLTVDKSSSTAYMELRSLTSEDSAIYYCATLYFDYWGQGTTLTVSS
VL: DIVMTQSPSSLSVSAGEKVTMSCKSSQSLLNSGNQKNYLAWYQQKPGQPPKLLIYGASTRESGVPDRFTGSGSGTDFTLTISSVQAEDLAVYYCQNDHSYPFTFGSGTKLEIKR
B4: C7 (antibody, human IgG1, kappa, V domains shown)
VH: B3 VH with N27Y, F29L, I34M, E52N, Y60F, V72I, A79T, I93V, T98S, Y100F
VL: B3 VL with V91L, D97A, Y100S, F102Y, S106G
B5: C20 (antibody, human IgG1, kappa, V domains shown)
VH: EVQLVESGGGLVKPGGSLKLSCAASGFTFSDSYMCWVRQTPEKRLEWVATISDAGGYTYYPDSVKGRFTISRDNDRNNLYLQMSGLKSEDTAVYYCGREDLWGQGTSVTVSS
VL: DIQMTQSPSSLSASLGERVSLTCRASQDIGRSLNWLQQEPDGTIKRLIYATSRLDSGVPKRFSGSRSGSDYSLTISSLESEDFVDYYCLQYASSPYTFGGGTKLEIKR
B6: C24 (antibody, human IgG1, kappa, V domains shown)
VH: QVQLKQSGPGLVQPSQNLSITCTVSGFSLTGYGINWVRQSPGKGLEWLGVIWSGGNTEYNAAFRSRLSISKDTSKSQVFLKMNSLQADDTAIYSCARDSTGLYAMDYWGPGTSVTVSS
VL: DLQMTQTTSSLSASLGDRVTISCRTSQDISNFLNWYQQKPDGPLKLLIYYTSRLHSGVPSRFSGSGSGTDYSLTISNLEQEDIATYFCQQGYMLPPTFGGGTKLEIKR

Target: T1, human CD112R on GS-J2C/CD112R effector …
Test: cell-based or functional assay

B1 and B2 are within 1.5-fold of each other in “EC50 (Blocking effects of the antibodies, reporter gene method)” value: 0.04 µg/mL for the first, 0.052 µg/mL for the second.

B3 and B4 are within 1.5-fold of each other in “EC50 (Blocking effects of the antibodies, reporter gene method)” value: 0.024 µg/mL for the first, 0.031 µg/mL for the second.

Compared with B5, B6 is 2-fold higher in “EC50 (Blocking effects of the antibodies, reporter gene method)” value: 0.025 µg/mL for the first, 0.05 µg/mL for the second.

Target: T2, human CD112R on antigen-specific CD8+ T …
Test: cell-based or functional assay

B1 and B2 are within 1.5-fold of each other in “IFN-γ(pg/ml) at 0.5µg/ml antibody” value: 535 pg/mL for the first, 619 pg/mL for the second.

B3 and B4 are within 1.5-fold of each other in “IFN-γ(pg/ml) at 0.5µg/ml antibody” value: 573 pg/mL for the first, 818 pg/mL for the second.

B5 and B6 are within 1.5-fold of each other in “IFN-γ(pg/ml) at 0.5µg/ml antibody” value: 708 pg/mL for the first, 611 pg/mL for the second.

B1 and B2 are within 1.5-fold of each other in “IFN-γ(pg/ml) at 5µg/ml antibody” value: 633 pg/mL for the first, 674 pg/mL for the second.

B3 and B4 are within 1.5-fold of each other in “IFN-γ(pg/ml) at 5µg/ml antibody” value: 751 pg/mL for the first, 837 pg/mL for the second.

B5 and B6 are within 1.5-fold of each other in “IFN-γ(pg/ml) at 5µg/ml antibody” value: 835 pg/mL for the first, 656 pg/mL for the second.

B1 and B2 are within 1.5-fold of each other in “IFN-γ(pg/ml) at 50µg/ml antibody” value: 755 pg/mL for the first, 759 pg/mL for the second.

B3 and B6 are within 1.5-fold of each other in “IFN-γ(pg/ml) at 50µg/ml antibody” value: 659 pg/mL for the first, 733 pg/mL for the second.

Target: T3, human CD112R antigen protein …
Test: ELISA, huCD112R-His coated on plate

B1 and B2 are within 1.5-fold of each other in EC50: 0.046 nM for the first, 0.052 nM for the second.

B3 and B4 are within 1.5-fold of each other in EC50: 0.033 nM for the first, 0.034 nM for the second.

First: B5
Second: B6
The EC50 of the first is 47-fold higher: 2.27 nM for the first, 0.048 nM for the second. The second is the more potent here.

Target: T4, monkey antigen protein (monkey CD112R, …)
Test: ELISA, monkey antigen protein (as Example 6.1)

First: B1
Second: B2
The EC50 of the first is 1.8-fold higher: 0.118 nM for the first, 0.067 nM for the second.

Compared with B3, B4 is 1.5-fold higher in EC50: 0.052 nM for the first, 0.08 nM for the second.

Going from B5 to B6, the EC50 falls from 8.36 nM to 0.169 nM (49-fold). The second is the more potent here.

Target: T3, human CD112R antigen protein …
Test: SPR (Biacore X100), antibody captured on Protein A chip, huCD112R-His as analyte, 1:1 Langmuir

Going from B1 to B2, the Kd falls from 0.181 nM to 0.0687 nM (2.6-fold). The second binds more tightly here.

First: B3
Second: B4
The Kd of the first is 2.6-fold lower: 0.022 nM for the first, 0.0576 nM for the second. The first binds more tightly here.

First: B5
Second: B6
The Kd of the first is 2.4-fold higher: 0.114 nM for the first, 0.0467 nM for the second. The second binds more tightly here.
